Measurements reported in KR20150000795A.

Biological target: c-Met on MKN45 gastric cancer cells / Caki-1 kidney cancer cells (human) (UniProt P08581)
Experiment: cell-based or functional assay

UniProt P08581, sequence (P08581 25-1390): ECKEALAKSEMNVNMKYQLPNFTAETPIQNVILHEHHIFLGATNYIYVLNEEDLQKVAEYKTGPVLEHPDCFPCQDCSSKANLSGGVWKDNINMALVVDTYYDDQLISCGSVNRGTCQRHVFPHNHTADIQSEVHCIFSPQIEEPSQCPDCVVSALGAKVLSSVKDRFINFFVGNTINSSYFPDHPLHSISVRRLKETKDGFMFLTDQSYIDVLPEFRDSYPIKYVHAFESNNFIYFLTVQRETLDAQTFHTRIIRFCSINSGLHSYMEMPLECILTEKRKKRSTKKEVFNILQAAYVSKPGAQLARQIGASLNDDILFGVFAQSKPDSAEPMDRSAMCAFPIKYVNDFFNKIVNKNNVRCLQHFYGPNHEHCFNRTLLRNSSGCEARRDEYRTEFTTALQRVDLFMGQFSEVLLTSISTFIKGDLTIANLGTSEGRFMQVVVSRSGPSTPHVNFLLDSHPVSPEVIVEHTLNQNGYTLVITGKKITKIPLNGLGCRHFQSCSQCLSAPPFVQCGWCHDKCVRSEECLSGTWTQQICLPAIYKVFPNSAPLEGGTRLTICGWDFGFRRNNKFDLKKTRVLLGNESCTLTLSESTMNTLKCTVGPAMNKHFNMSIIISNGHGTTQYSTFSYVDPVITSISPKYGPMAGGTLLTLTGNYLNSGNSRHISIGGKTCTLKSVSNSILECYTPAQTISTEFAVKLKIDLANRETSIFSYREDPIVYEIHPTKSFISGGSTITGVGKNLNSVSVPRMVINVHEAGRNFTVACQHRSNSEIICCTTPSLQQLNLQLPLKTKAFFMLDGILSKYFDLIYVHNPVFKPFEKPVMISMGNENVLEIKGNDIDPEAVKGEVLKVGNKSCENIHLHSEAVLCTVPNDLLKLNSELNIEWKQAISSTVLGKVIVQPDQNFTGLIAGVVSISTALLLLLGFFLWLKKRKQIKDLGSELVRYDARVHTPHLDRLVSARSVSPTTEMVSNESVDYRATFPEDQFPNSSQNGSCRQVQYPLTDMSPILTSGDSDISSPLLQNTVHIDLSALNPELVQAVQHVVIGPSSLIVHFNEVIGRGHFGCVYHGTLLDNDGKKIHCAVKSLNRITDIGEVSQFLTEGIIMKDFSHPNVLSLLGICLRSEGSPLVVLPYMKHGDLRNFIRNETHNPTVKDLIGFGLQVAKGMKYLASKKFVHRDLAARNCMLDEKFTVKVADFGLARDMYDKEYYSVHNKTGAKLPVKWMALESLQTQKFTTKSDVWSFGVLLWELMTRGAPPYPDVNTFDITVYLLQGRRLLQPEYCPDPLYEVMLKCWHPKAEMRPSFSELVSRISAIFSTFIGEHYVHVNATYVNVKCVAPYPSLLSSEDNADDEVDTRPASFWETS

Akt phosphorylation (Ser473), phospho-AKT1 sandwich ELISA, Caki-1 cells (reference set to 100%): 100%
Substance: 5D5 (antibody)
